Assay results taken from patent publication US20050142561A1 (published 2005).

Target: T1, Saccharomyces cerevisiae Fab1p (Saccharomyces cerevisiae, UniProt P34756 1-2278)
T1 construct: Constructs used in the two-hybrid, coimmunoprecipitation and cross-linking experiments are not described; also called PI3P 5-kinase
Assay: yeast two-hybrid; coimmunoprecipitation; cross-linking

T1 sequence (P34756 whole entry): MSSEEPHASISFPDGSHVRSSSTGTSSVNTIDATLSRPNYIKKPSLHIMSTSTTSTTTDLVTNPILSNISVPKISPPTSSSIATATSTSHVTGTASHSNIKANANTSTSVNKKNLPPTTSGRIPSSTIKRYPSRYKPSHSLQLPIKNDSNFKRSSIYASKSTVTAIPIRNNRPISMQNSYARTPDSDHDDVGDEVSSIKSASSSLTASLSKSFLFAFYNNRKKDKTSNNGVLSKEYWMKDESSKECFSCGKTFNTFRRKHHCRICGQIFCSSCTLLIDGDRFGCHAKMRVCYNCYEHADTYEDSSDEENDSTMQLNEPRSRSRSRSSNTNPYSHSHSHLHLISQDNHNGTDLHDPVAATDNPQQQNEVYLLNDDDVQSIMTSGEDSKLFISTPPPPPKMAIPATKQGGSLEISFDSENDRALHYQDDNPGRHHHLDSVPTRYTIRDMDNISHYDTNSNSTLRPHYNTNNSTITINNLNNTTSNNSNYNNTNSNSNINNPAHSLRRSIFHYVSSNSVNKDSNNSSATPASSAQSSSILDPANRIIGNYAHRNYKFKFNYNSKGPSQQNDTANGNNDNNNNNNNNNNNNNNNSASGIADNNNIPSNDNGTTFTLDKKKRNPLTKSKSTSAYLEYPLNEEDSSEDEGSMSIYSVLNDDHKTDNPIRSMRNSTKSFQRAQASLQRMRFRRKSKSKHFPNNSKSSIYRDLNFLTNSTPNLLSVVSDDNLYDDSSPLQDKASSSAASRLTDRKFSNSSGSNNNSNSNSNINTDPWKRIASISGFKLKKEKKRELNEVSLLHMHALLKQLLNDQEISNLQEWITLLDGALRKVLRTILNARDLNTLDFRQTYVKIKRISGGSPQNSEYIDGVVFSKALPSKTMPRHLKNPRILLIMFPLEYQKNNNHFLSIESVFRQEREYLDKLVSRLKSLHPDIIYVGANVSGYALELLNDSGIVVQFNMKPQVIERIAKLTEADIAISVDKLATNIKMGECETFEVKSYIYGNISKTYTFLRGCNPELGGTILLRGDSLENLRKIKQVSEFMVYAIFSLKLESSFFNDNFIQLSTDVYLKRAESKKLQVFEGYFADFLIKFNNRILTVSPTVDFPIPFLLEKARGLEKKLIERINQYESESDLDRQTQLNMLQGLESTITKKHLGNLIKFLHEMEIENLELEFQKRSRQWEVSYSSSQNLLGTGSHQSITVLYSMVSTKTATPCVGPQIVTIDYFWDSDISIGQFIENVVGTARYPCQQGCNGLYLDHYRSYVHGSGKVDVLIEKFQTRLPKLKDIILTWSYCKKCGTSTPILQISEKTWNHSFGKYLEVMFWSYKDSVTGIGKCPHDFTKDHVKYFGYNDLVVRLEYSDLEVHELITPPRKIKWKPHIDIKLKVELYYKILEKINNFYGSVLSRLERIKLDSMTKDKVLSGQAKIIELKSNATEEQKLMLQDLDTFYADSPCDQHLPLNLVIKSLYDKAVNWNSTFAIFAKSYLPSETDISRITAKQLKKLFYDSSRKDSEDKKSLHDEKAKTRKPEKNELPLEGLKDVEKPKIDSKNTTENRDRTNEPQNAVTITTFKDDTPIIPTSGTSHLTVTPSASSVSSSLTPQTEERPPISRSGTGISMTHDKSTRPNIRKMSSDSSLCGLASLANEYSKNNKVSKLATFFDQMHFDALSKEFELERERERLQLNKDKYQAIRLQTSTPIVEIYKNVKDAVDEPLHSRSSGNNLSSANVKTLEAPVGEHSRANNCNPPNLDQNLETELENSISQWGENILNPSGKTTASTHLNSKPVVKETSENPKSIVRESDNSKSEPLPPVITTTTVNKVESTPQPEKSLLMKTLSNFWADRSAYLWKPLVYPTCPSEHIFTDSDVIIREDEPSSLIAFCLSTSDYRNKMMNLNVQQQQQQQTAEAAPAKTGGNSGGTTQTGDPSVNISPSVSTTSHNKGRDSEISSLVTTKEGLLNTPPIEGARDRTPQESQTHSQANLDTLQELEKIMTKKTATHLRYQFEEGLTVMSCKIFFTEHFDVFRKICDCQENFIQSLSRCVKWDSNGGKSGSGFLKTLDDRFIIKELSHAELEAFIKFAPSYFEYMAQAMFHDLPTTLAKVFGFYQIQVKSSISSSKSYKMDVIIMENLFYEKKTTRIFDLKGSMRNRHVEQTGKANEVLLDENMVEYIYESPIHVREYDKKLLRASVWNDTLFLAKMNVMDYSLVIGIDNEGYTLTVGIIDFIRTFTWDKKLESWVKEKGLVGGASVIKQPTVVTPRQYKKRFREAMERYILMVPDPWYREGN

B1: Saccharomyces cerevisiae Vac14p (other)
chain: MEKSIAKGLSDKLYEKRKAAALELEKLVKQCVLEGDYDRIDKIIDELCRDYAYALHQPMARNAGLMGLAATAIALGINDVGRYLRNILPPVLACFGDQNDQVRFYACESLYNIAKIAKGEILVYFNEIFDVLCKISADTENSVRGAAELLDRLIKDIVAERASNYISIVNNGSHGLLPAIKTDPISGDVYQEEYEQDNQLAFSLPKFIPLLTERIYAINPDTRVFLVDWLKVLLNTPGLELISYLPSFLGGLFTFLGDSHKDVRTVTHTLMDSLLHEVDRISKLQTEIKMKRLERLKMLEDKYNNSSTPTKKADGALIAEKKKTLMTALGGLSKPLSMETDDTKLSNTNETDDERHLTSQEQLLDSEATSQEPLRDGEEYIPGQDINLNFPEVITVLVNNLASSEAEIQLIALHWIQVILSISPNVFIPFLSKILSVLLKLLSDSDPHITEIAQLVNGQLLSLCSSYVGKETDGKIAYGPIVNSLTLQFFDSRIDAKIACLDWLILIYHKAPNQILKHNDSMFLTLLKSLSNRDSVLIEKALSLLQSLCSDSNDNYLRQFLQDLLTLFKRDTKLVKTRANFIMRQISSRLSPERVYKVISSILDNYNDTTFVKMMIQILSTNLITSPEMSSLRNKLRTCEDGMFFNSLFKSWCPNPVSVISLCFVAENYELAYTVLQTYANYELKLNDLVQLDILIQLFESPVFTRMRLQLLEQQKHPFLHKCLFGILMIIPQSKAFETLNRRLNSLNIWTSQSYVMNNYIRQRENSNFCDSNSDISQRSVSQSKLHFQELINHFKAVSEEDEYSSDMIRLDHGANNKSLLLGSFLDGIDEDKQEIVTPISPMNEAINEEMESPNDNSSVILKDSGSLPFNRNVSDKLKK
notes: 880 amino acid polypeptide; In the Western blot it is the endogenous protein of yeast cell extracts; also called Vac14 yeast; YLR386W product
- binding result: no binding
